Consider 13 molecules from patent publication US6120992, “Use of immobilized mismatch binding protein for detection of mutations and polymorphisms, and allele identification in a diseased human” (ValiGene Corporation).

Positions count from the first letter of the chain named.

Data set [1] concerns the target T1, MutS (Escherichia coli, UniProt P23909 P23909:1-853).
T1 sequence: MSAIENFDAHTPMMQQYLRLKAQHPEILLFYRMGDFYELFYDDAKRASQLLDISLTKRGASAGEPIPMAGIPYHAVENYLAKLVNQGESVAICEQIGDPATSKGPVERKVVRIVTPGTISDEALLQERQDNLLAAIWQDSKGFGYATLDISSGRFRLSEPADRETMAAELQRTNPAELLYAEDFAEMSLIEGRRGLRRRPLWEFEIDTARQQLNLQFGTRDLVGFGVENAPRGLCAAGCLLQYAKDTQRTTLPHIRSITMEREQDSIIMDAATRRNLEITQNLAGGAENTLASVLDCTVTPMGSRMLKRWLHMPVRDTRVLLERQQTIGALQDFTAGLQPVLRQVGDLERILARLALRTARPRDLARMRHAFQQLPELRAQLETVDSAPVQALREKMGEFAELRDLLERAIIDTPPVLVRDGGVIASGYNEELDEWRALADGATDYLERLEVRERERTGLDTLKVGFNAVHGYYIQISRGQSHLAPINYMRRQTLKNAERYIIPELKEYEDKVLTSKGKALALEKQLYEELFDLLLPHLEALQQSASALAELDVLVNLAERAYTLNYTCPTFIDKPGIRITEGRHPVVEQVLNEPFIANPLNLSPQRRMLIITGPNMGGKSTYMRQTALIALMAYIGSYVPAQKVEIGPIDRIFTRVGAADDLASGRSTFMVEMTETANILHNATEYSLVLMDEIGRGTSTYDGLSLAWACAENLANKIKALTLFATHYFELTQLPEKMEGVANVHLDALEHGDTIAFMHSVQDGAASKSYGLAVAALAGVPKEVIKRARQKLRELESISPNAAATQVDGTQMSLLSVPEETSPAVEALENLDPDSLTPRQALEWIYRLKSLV
Briefly: filter; soluble MutS, 1 or 10 ng DNA; 1.8-fold at 0.1 ng. To be noted: tags: immobilized on nitrocellulose, PVDF, nylon or magnetic beads; label: 5' biotin on first strand; G//T mismatch. The protocol: The binding of ^32P-labeled heteroduplexes to MutS in solution was tested in a standard filter binding assay essentially as described by Jiricny, J. et al., Nucl. Acids Res. 16:7843–7853 (1988). The oligonucleotides were labeled as above and annealed with a 10-fold excess of unlabeled "complementary" oligonucleotides to yield a homoduplex and a heteroduplex containing a single G//T mismatch. For this assay, 500 ng of MutS in reaction buffer (20 µl) was incubated for 30 minutes at room temperature with the two types of duplexes. The mixture was spotted onto pre-wet nitrocellulose filters, which were then washed 5 times with 2 ml reaction buffer by vacuum filtration and dried at 80° C. for 15 minutes. Each filter was placed in 3 ml scintillation fluid and the radioactivity determined by scintillation counting. Background cpm (no MutS) were subtracted from the cpm bound by MutS. Means of duplicate or triplicate determinations are shown below.

Data set [2] addresses T1, MutS. Briefly: immobilized MutS; C//T less well detected than T//C. To be noted: tags: immobilized on nitrocellulose, PVDF, nylon or magnetic beads; label: 5' biotin on first strand; C//T mismatch. The protocol: (§1) Immobilization of MutS on Solid Supports and Biotin Detection Assay (a) Nitrocellulose A nitrocellulose sheet (0.45 μm, Schleicher and Schull, BA85) was pre-wet by floating in reaction buffer (20 mM Tris HCl, pH 7.6; 5 mM MgCl_2, 0.1 mM DTT, 0.01 mM EDTA). MutS (500 ng/well) in reaction buffer was bound to the nitrocellulose in a 48 well slot blotting apparatus (Hoefer Scientific Instruments) over 3 sheets of blotting paper (Schleicher and Schull GB002). Reaction buffer alone was added to "no MutS" wells. After 20 min. at room temperature, nitrocellulose was blocked with 200 μl/well of 3% horse radish peroxidase (HRP)-free bovine serum albumin (BSA). After 1 hour, excess blocking solution was pulled through with vacuum and DNA (1 ng and 10 ng) was added in 20 μl reaction buffer containing 3% BSA. After 30 min. at room temperature, wells were washed 5 times with 100 μl reaction buffer. The wash fluids were decanted rather than pulled through with vacuum.
(§2) The presence of biotin-labeled DNA bound on the nitrocellulose sheet was detected by visualizing the binding of streptavidin to biotin. 100 μl streptavidin-conjugated HRP (0.05 μg/ml in reaction buffer+BSA) was added to each well. After 20 min. at room temperature, any remaining solution was decanted and the wells washed 5 times with 100 μl reaction buffer as above.

Data set [3] has as its target T1, MutS. In words: immobilized MutS. To be noted: tags: immobilized on nitrocellulose, PVDF, nylon or magnetic beads, label: 5' biotin on first strand. The procedure:
as §1, §2

Data set [4] deals with T1, MutS. Briefly: immobilized MutS; strong signal. To be noted: tags: immobilized on nitrocellulose, PVDF, nylon or magnetic beads; label: 5' biotin on first strand; G//G mismatch. The protocol:
as §1, §2

Data set [5] has as its target T1, MutS. In words: immobilized MutS. To be noted: tags: immobilized on nitrocellulose, PVDF, nylon or magnetic beads, label: biotin. The procedure: as §1
DNA was prepared as described in the Examples above. 500 ng *E. coli* MutS was bound to nitrocellulose as described above and the experiment carried out as in the previous Examples. Self-annealed single stranded triplet repeat sequences of CGG and CTG formed double-stranded mismatch-containing DNA duplexes which were recognized by immobilized MutS.

Data set [6] addresses T1, MutS. In words: immobilized MutS, 1-10 ng; detected equally to G//T. To be noted: tags: immobilized on nitrocellulose, PVDF, nylon or magnetic beads; label: 5' biotin on first strand; T//G mismatch. The protocol: as §1, §2
The mark [7] stands for this setting: self-annealed duplex with mismatches.

B1: G//T mismatch 30mer (dsDNA)
DNA 1: GCACCTGACTCCTGGGGAGAAGTCTGCCGT
DNA 2: ACGGCAGACTTCTCCTCAGGAGTCAGGTGC
Take B1: the binding signal with MutS [1] was 5.2 fold over G:C homoduplex.

B2: C//T mismatch 30mer (dsDNA)
DNA 1: B1 DNA 1 with G15C
DNA 2: B1 DNA 2
B2: in the data set with MutS [2], the binding result was “binds”.

B3: T//T mismatch 30mer (dsDNA)
DNA 1: B1 DNA 1 with G15T
DNA 2: B1 DNA 2
For the molecule B3, the binding result with MutS [3] (T//T mismatch) was “binds”.

B4: A//A mismatch 30mer (dsDNA)
DNA 1: B1 DNA 1 with G15A
DNA 2: B1 DNA 2 with T16A
As to B4, in the data set with MutS [3] (A//A mismatch), the binding result is recorded as “binds”.

B5: G//A mismatch 30mer (dsDNA)
DNA 1: B1 DNA 1
DNA 2: B1 DNA 2 with T16A
B5: the binding result in the data set with MutS [3] (G//A mismatch) is listed as “binds”.

B6: G//G mismatch 30mer (dsDNA)
DNA 1: B1 DNA 1
DNA 2: B1 DNA 2 with T16G
Regarding B6, the binding result with MutS [4] is given as “binds”.

B7: A//C mismatch 30mer (dsDNA)
DNA 1: B1 DNA 1 with G15A
DNA 2: B1 DNA 2 with T16C
For the molecule B7, the binding result in the data set with MutS [3] (A//C mismatch) is on record as “binds”.

B8: (CCG)10 (ssDNA)
DNA: CCGCCGCCGCCGCCGCCGCCGCCGCCGCCG
As for B8, in the data set with MutS [5], the binding result is recorded as “no binding”.

B9: (CAG)10 (ssDNA)
DNA: CAGCAGCAGCAGCAGCAGCAGCAGCAGCAG
As for B9, in the data set with MutS [5], the binding result is reported as “no binding”.

B10: (CTG)10 (structured_DNA)
DNA: CTGCTGCTGCTGCTGCTGCTGCTGCTGCTG
With B10, the binding result in the data set with MutS [5] (setting [7]) is listed as “binds”.

B11: (CGG)10 (structured_DNA)
DNA: CGGCGGCGGCGGCGGCGGCGGCGGCGGCGG
Regarding B11, the binding result with MutS [5] (setting [7]) is reported as “binds”.

B12: A//G mismatch 30mer (dsDNA)
DNA 1: B1 DNA 1 with G15A
DNA 2: B1 DNA 2 with T16G
As for B12, the binding result in the data set with MutS [3] (A//G mismatch) was “binds”.

B13: T//G mismatch 30mer (dsDNA)
DNA 1: B1 DNA 1 with G15T
DNA 2: B1 DNA 2 with T16G
With B13, in the data set with MutS [6], the binding result is on record as “binds”.
